{"source": "patent US20220125891", "proteins": {"B1": {"name": "IKKβ (manufactured by SignalChem) (protein)", "chain": "MSWSPSLTTQTCGAWEMKERLGTGGFGNVIRWHNQETGEQIAIKQCRQELSPRNRERWCLEIQIMRRLTHPNVVAARDVPEGMQNLAPNDLPLLAMEYCQGGDLRKYLNQFENCCGLREGAILTLLSDIASALRYLHENRIIHRDLKPENIVLQQGEQRLIHKIIDLGYAKELDQGSLCTSFVGTLQYLAPELLEQQKYTVTVDYWSFGTLAFECITGFRPFLPNWQPVQWHSKVRQKSEVDIVVSEDLNGTVKFSSSLPYPNNLNSVLAERLEKWLQLMLMWHPRQRGTDPTYGPNGCFKALDDILNLKLVHILNMVTGTIHTYPVTEDESLQSLKARIQQDTGIPEEDQELLQEAGLALIPDKPATQCISDGKLNEGHTLDMDLVFLFDNSKITYETQISPRPQPESVSCILQEPKRNLAFFQLRKVWGQVWHSIQTLKEDCNRLQQGQRAAMMNLLRNNSCLSKMKNSMASMSQQLKAKLDFFKTSIQIDLEKYSEQTEFGITSDKLLLAWREMEQAVELCGRENEVKLLVERMMALQTDIVDLQRSPMGRKQGGTLDDLEEQARELYRRLREKPRDQRTEGDSQEMVRLLLQAIQSFEKKVRVIYTQLSKTVVCKQKALELLPKVEEVVSLMNEDEKTVVRLQEKRQKELWNLLKIACSKVRGPVSGSPDSMNASRLSQPGQLMSQPSTASNSLPEPAKKSEELVAEAHNLCTLLENAIQDTVREQDQSFTALDWSWLQTEEEEHSCLEQAS"}, "B2": {"name": "TBK1 (manufactured by SignalChem) (protein)", "chain": "MQSTSNHLWLLSDILGQGATANVFRGRHKKTGDLFAIKVFNNISFLRPVDVQMREFEVLKKLNHKNIVKLFAIEEETTTRHKVLIMEFCPCGSLYTVLEEPSNAYGLPESEFLIVLRDVVGGMNHLRENGIVHRDIKPGNIMRVIGEDGQSVYKLTDFGAARELEDDEQFVSLYGTEEYLHPDMYERAVLRKDHQKKYGATVDLWSIGVTFYHAATGSLPFRPFEGPRRNKEVMYKIITGKPSGAISGVQKAENGPIDWSGDMPVSCSLSRGLQVLLTPVLANILEADQEKCWGFDQFFAETSDILHRMVIHVFSLQQMTAHKIYIHSYNTATIFHELVYKQTKIISSNQELIYEGRRLVLEPGRLAQHFPKTTEENPIFVVSREPLNTIGLIYEKISLPKVHPRYDLDGDASMAKAITGVVCYACRIASTLLLYQELMRKGIRWLIELIKDDYNETVHKKTEVVITLDFCIRNIEKTVKVYEKLMKINLEAAELGEISDIHTKLLRLSSSQGTIETSLQDIDSRLSPGGSLADAWAHQEGTHPKDRNVEKLQVLLNCMTEIYYQFKKDKAERRLAYNEEQIHKFDKQKLYYHATKAMTHFTDECVKKYEAFLNKSEEWIRKMLHLRKQLLSLTNQCFDIEEEVSKYQEYTNELQETLPQKMFTASSGIKHTMTPIYPSSNTLVEMTLGMKKLKEEMEGVVKELAENNHILERFGSLTMDGGLRNVDCL"}}, "biological_target": "T1, human Regnase-1 of Example 15 (full length, GST tag cleaved off, BirA recognition sequence on the C-terminal side, biotinylated)", "T1 sequence (Q5D1E8 1-599, looked up)": "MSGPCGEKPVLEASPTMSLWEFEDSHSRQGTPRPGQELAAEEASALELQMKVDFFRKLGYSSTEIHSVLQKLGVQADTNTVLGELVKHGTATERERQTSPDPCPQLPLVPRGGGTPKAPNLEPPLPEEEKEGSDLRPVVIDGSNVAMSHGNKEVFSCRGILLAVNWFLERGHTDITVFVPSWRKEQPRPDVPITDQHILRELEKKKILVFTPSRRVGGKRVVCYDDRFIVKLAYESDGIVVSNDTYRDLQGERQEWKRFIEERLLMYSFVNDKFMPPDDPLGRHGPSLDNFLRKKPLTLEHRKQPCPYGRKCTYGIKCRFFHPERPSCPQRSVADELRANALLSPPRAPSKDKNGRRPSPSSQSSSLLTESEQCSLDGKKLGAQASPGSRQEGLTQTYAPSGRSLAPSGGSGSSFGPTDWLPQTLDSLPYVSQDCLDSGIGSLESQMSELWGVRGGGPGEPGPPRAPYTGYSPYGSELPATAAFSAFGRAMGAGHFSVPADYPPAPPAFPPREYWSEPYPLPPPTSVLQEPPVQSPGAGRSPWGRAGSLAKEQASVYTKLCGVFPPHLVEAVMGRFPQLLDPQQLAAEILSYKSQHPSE"}
{"protein": "B1", "values": [{"measurement": "phosphorylation detected by Western blotting", "result": "it was confirmed that human Regnase-1 is phosphorylated by IKKβ and TBK1"}]}
{"protein": "B2", "values": [{"measurement": "phosphorylation detected by Western blotting", "result": "it was confirmed that human Regnase-1 is phosphorylated by IKKβ and TBK1"}]}
